Laboratory results taken from the supplement of paper PMC5998384.

Legend:
HeLa Kyoto [1] = assay: thermal stability score vs G1/S (z-score of summed log2 fold changes over temperatures); higher = more thermally stable than in G1/S
HeLa Kyoto [2] = assay: solubility change mitosis vs G1/S (difference of NP-40 vs SDS log2 ratios) (log2 ratio difference); higher = more soluble in mitosis
HeLa Kyoto [3] = assay: melting temperature (median over replicates), in situ; higher = more thermally stable
HeLa Kyoto [4] = assay: solubility in G1/S (NP-40 vs SDS abundance) (log2 ratio); higher = more soluble; conditions: cell cycle stage: G1/S
[5] = cell cycle stage: early G1 (4.5 h after nocodazole release)
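For melting temperature (median over replicates), in situ in this document: HeLa Kyoto cells synchronized by double thymidine or nocodazole block, proteins quantified by TMT10plex mass spectrometry, three independent biological replicates.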
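For solubility change mitosis vs G1/S (difference of NP-40 vs SDS log2 ratios) in this document: synchronized HeLa Kyoto cells (double thymidine block for G1/S, nocodazole release for mitosis), protein amounts in NP-40 versus SDS lysates quantified by mass spectrometry, three biological replicates.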
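For solubility in G1/S (NP-40 vs SDS abundance) in this document: HeLa Kyoto cells arrested at G1/S by double thymidine block, proteins quantified by TMT10plex mass spectrometry in mild NP-40 versus SDS extracts, three biological replicates.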
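For thermal stability score vs G1/S (z-score of summed log2 fold changes over temperatures) in this document: synchronized HeLa Kyoto cells, proteins quantified by TMT10plex mass spectrometry, three biological replicates, mitosis taken 0.5 h after nocodazole release, G1/S directly after double thymidine block.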

With “MFRRKLTALDYHNPAGFNCKDETEFRNFIVWLEDQKIRHYKIEDRGNLRNIHSSDWPKFFEKYLRDVNCPFKIQDRQEAIDWLLGLAVRLEYGDNAEKYKDLVPDNSKTADNATKNAEPLINLDVNNPDFKAGVMALANLLQIQRHDDYLVMLKAIRILVQERLTQDAVAKANQTKEGLPVALDKHILGFDTGDAVLNEAAQILRLLHIEELRELQTKINEAIVAVQAIIADPKTDHRLGKVGR [C14ORF166]” the thermal stability score (HeLa Kyoto [1]; [5]) was -1.08, the thermal stability score (HeLa Kyoto [1]; cell cycle stage: mitosis) was -0.0878 and the “solubility change mitosis (log2)” value (HeLa Kyoto [2]) was 0.329. For the same sequence, the melting temperature (HeLa Kyoto [3]; cell cycle stage: G1/S) was 50.1 °C, the melting temperature (HeLa Kyoto [3]; cell cycle stage: mitosis) was 51.3 °C and the “solubility in G1/S (log2)” value (HeLa Kyoto [4]) was 0.0935.
For “MFRYESLEDCPLDEDEDAFQGLGEEDEEIDQFNDDTFGSGAVDDDWQEAHERLAELEEKLPVAVNEQTGNGERDEMDLLGDHEENLAERLSKMVIENELEDPAIMRAVQTRPVLQPQPGSLNSSIWDGSEVLRRIRGPLLAQEMPTVSVLEYALPQRPPQGPEDDRDLSERALPRRSTSPIIGSPPVRAVPIGTPPKQMAVPSFTQQILCPKPVHVRPPMPPRYPAPYGERMSPNQLCSVPNSSLLGHPFPPSVPPVLSPLQRAQLLGGAQLQPGRMSPSQFARVPGFVGSPLAAMNPKLLQGRVGQMLPPAPGFRAFFSAPPSATPPPQQHPPGPGPHLQNLRSQAPMFRPDTTHLHPQHRRLLHQRQQQNRSQHRNLNGAGDRGSHRSSHQDHLRKDPYANLMLQREKDWVSKIQMMQLQSTDPYLDDFYYQNYFEKLEKLSAAEEIQGDGPKKERTKLITPQVAKLEHAYKPVQFEGSLGKLTVSSVNNPRKMIDAVVTSRSEDDETKEKQVRDKRRKTLVIIEKTYSLLLDVEDYERRYLLSLEEERPALMDDRKHKICSMYDNLRGKLPGQERPSDDHFVQIMCIRKGKRMVARILPFLSTEQAADILMTTARNLPFLIKKDAQDEVLPCLLSPFSLLLYHLPSVSITSLLRQLMNLPQSAATPALSNPHLTAVLQNKFGLSLLLILLSRGEDLQSSDPATESTQNNQWTEVMFMATRELLRIPQAALAKPISIPTNLVSLFSRYVDRQKLNLLETKLQLVQGIR [PATL1]”, the thermal stability score (HeLa Kyoto [1]; [5]) was -0.863, the thermal stability score (HeLa Kyoto [1]; cell cycle stage: mitosis) was 0.327 and the “solubility change mitosis (log2)” value (HeLa Kyoto [2]) was -0.0674. The melting temperature (HeLa Kyoto [3]; cell cycle stage: G1/S) was 49.2 °C, the melting temperature (HeLa Kyoto [3]; cell cycle stage: mitosis) was 48.5 °C and the “solubility in G1/S (log2)” value (HeLa Kyoto [4]) was 0.255.
“MFSFEGDFKTRPKVSLGGASRKEEKASLLHRTQEERRKREEERRRLKNAIIIQSFIRGYRDRKQQYSIQRSAFDRCATLSQSGGAFPIANGPNLTLLVRQLLFFYKQNEDSKRLIWLYQNLIKHSSLFVKQLDGSERLTCLFQIKRLMSLCCRLLQNCNDDSLNVALPMRMLEVFSSENTYLPVLQDASYVVSVIEQILHYMIHNGYYRSLYLLINSKLPSSIEYSDLSRVPIAKILLENVLKPLHFTYNSCPEGARQQVFTAFTEEFLAAPFTDQIFHFIIPALADAQTVFPYEPFLNALLLIESRCSRKSGGAPWLFYFVLTVGENYLGALSEEGLLVYLRVLQTFLSQLPVSPASASCHDSASDSEEESEEADKPSSPEDGRLSVSYITEECLKKLDTKQQTNTLLNLVWRDSASEEVFTTMASVCHTLMVQHRMMVPKVRLLYSLAFNARFLRHLWFLISSMSTRMITGSMVPLLQVISRGSPMSFEDSSRIIPLFYLFSSLFSHSLISIHDNEFFGDPIEVVGQRQSSMMPFTLEELIMLSRCLRDACLGIIKLAYPETKPEVREEYITAFQSIGVTTSSEMQQCIQMEQKRWIQLFKVITNLVKMLKSRDTRRNFCPPNHWLSEQEDIKADKVTQLYVPASRHVWRFRRMGRIGPLQSTLDVGLESPPLSVSEERQLAVLTELPFVVPFEERVKIFQRLIYADKQEVQGDGPFLDGINVTIRRNYIYEDAYDKLSPENEPDLKKRIRVHLLNAHGLDEAGIDGGGIFREFLNELLKSGFNPNQGFFKTTNEGLLYPNPAAQMLVGDSFARHYYFLGRMLGKALYENMLVELPFAGFFLSKLLGTSADVDIHHLASLDPEVYKNLLFLKSYEDDVEELGLNFTVVNNDLGEAQVVELKFGGKDIPVTSANRIAYIHLVADYRLNRQIRQHCLAFRQGLANVVSLEWLRMFDQQEIQVLISGAQVPISLEDLKSFTNYSGGYSADHPVIKVFWRVVEGFTDEEKRKLLKFVTSCSRPPLLGFKELYPAFCIHNGGSDLERLPTASTCMNLLKLPEFYDETLLRSKLLYAIECAAGFELS [UBE3C]” was tested, and the thermal stability score (HeLa Kyoto [1]; [5]) was 0.499, the thermal stability score (HeLa Kyoto [1]; cell cycle stage: mitosis) was 0.996 and the “solubility change mitosis (log2)” value (HeLa Kyoto [2]) was -0.263. For the same sequence, the melting temperature (HeLa Kyoto [3]; cell cycle stage: G1/S) was 50.3 °C, the melting temperature (HeLa Kyoto [3]; cell cycle stage: mitosis) was 50.1 °C and the “solubility in G1/S (log2)” value (HeLa Kyoto [4]) was -0.181.
In the case of “MFSWVSKDARRKKEPELFQTVAEGLRQLYAQKLLPLEEHYRFHEFHSPALEDADFDNKPMVLLVGQYSTGKTTFIRHLIEQDFPGMRIGPEPTTDSFIAVMHGPTEGVVPGNALVVDPRRPFRKLNAFGNAFLNRFMCAQLPNPVLDSISIIDTPGILSGEKQRISRGYDFAAVLEWFAERVDRIILLFDAHKLDISDEFSEVIKALKNHEDKIRVVLNKADQIETQQLMRVYGALMWSLGKIINTPEVVRVYIGSFWSHPLLIPDNRKLFEAEEQDLFKDIQSLPRNAALRKLNDLIKRARLAKVHAYIISSLKKEMPNVFGKESKKKELVNNLGEIYQKIEREHQISPGDFPSLRKMQELLQTQDFSKFQALKPKLLDTVDDMLANDIARLMVMVRQEESLMPSQVVKGGAFDGTMNGPFGHGYGEGAGEGIDDVEWVVGKDKPTYDEIFYTLSPVNGKITGANAKKEMVKSKLPNTVLGKIWKLADVDKDGLLDDEEFALANHLIKVKLEGHELPADLPPHLVPPSKRRHE [EHD1]”, the thermal stability score (HeLa Kyoto [1]; [5]) is reported as 2.25, the thermal stability score (HeLa Kyoto [1]; cell cycle stage: mitosis) is reported as 2.22 and the “solubility change mitosis (log2)” value (HeLa Kyoto [2]) is reported as -0.0648. The melting temperature (HeLa Kyoto [3]; cell cycle stage: G1/S) was 50.6 °C, the melting temperature (HeLa Kyoto [3]; cell cycle stage: mitosis) was 50.5 °C and the “solubility in G1/S (log2)” value (HeLa Kyoto [4]) was 0.171.
For “MFVELNNLLNTTPDRAEQGKLTLLCDAKTDGSFLVHHFLSFYLKANCKVCFVALIQSFSHYSIVGQKLGVSLTMARERGQLVFLEGLKSAVDVVFQAQKEPHPLQFLREANAGNLKPLFEFVREALKPVDSGEARWTYPVLLVDDLSVLLSLGMGAVAVLDFIHYCRATVCWELKGNMVVLVHDSGDAEDEENDILLNGLSHQSHLILRAEGLATGFCRDVHGQLRILWRRPSQPAVHRDQSFTYQYKIQDKSVSFFAKGMSPAVL [ELP6]”, the thermal stability score (HeLa Kyoto [1]; [5]) was -0.431, the thermal stability score (HeLa Kyoto [1]; cell cycle stage: mitosis) was -1.3 and the “solubility change mitosis (log2)” value (HeLa Kyoto [2]) was -0.245. The melting temperature (HeLa Kyoto [3]; cell cycle stage: G1/S) was 55.1 °C, the melting temperature (HeLa Kyoto [3]; cell cycle stage: mitosis) was 54.4 °C and the “solubility in G1/S (log2)” value (HeLa Kyoto [4]) was -0.082.
For “MFVPRSLKIKRNANDDGKSCVAKIIKPDPEDLQLDKSRDVPVDAVATEAATIDRHISESCPFPSPGGQLAEVHSVSPEQGAKDSHPSEEPVKSFSKTQRWAEPGEPICVVCGRYGEYICDKTDEDVCSLECKAKHLLQVKEKEEKSKLSNPQKADSEPESPLNASYVYKEHPFILNLQEDQIENLKQQLGILVQGQEVTRPIIDFEHCSLPEVLNHNLKKSGYEVPTPIQMQMIPVGLLGRDILASADTGSGKTAAFLLPVIMRALFESKTPSALILTPTRELAIQIERQAKELMSGLPRMKTVLLVGGLPLPPQLYRLQQHVKVIIATPGRLLDIIKQSSVELCGVKIVVVDEADTMLKMGFQQQVLDILENIPNDCQTILVSATIPTSIEQLASQLLHNPVRIITGEKNLPCANVRQIILWVEDPAKKKKLFEILNDKKLFKPPVLVFVDCKLGADLLSEAVQKITGLKSISIHSEKSQIERKNILKGLLEGDYEVVVSTGVLGRGLDLISVRLVVNFDMPSSMDEYVHQIGRVGRLGQNGTAITFINNNSKRLFWDIAKRVKPTGSILPPQLLNSPYLHDQKRKEQQKDKQTQNDLVTGANLMDIIRKHDKSNSQK [DDX59]”, the thermal stability score (HeLa Kyoto [1]; [5]) was 1.04, the thermal stability score (HeLa Kyoto [1]; cell cycle stage: mitosis) was 1.76 and the “solubility change mitosis (log2)” value (HeLa Kyoto [2]) was -0.18. The melting temperature (HeLa Kyoto [3]; cell cycle stage: G1/S) was 50.8 °C, the melting temperature (HeLa Kyoto [3]; cell cycle stage: mitosis) was 50.3 °C and the “solubility in G1/S (log2)” value (HeLa Kyoto [4]) was 0.419.
